{"source": "paper PMC5294778", "target": "FBXW7 (UniProt Q8VBV4)", "assay": "anti-FLAG co-IP, MCL1-HA blot", "settings": "reference: WT MCL1-HA; sites S140", "data": [{"substance": "MCL1 (from UniProt P97287) MCL1-HA S140A", "values": [{"measurement": "binding against the reference", "value": "weaker"}]}]}
